Test system: Escherichia coli TOP10
Experiment: shrunken log2 fold change of peptide-encoding DNA abundance (4.5 h post-induction vs induction); higher = less antimicrobial activity (less host growth inhibition)
Settings: time post-induction: 4.5 h; library: site-saturation at positions 5, 18, 19, 20
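Note: peptides expressed intracellularly from a pBAD plasmid library in pooled LB shake-flask culture, induced with 0.3% L-arabinose, DNA abundance read by NGS, three biological replicates, DESeq2 with apeglm shrinkage.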

Sequence	shrunken log2 fold change
RRIRLRPPRLPRPRPRPSDTPRP	-0.142
RRIRLRPPRLPRPRPRPSENPRP	0.124
RRIRLRPPRLPRPRPRPSFEPRP	0.0552
RRIRLRPPRLPRPRPRPSFYPRP	-0.7
RRIRLRPPRLPRPRPRPSGRPRP	0.448
RRIRLRPPRLPRPRPRPSHHPRP	-0.319
RRIRLRPPRLPRPRPRPSIAPRP	-0.217
RRIRLRPPRLPRPRPRPSKCPRP	-0.0487
RRIRLRPPRLPRPRPRPSKPPRP	-0.0779
RRIRLRPPRLPRPRPRPSMQPRP	-0.205
RRIRLRPPRLPRPRPRPSMSPRP	0.221
RRIRLRPPRLPRPRPRPSNCPRP	-0.581
RRIRLRPPRLPRPRPRPSNWPRP	-0.196
RRIRLRPPRLPRPRPRPSPEPRP	0.00229
RRIRLRPPRLPRPRPRPSPLPRP	-0.192
RRIRLRPPRLPRPRPRPSPNPRP	-0.183
RRIRLRPPRLPRPRPRPSRAPRP	0.0241
RRIRLRPPRLPRPRPRPSRFPRP	-0.211
RRIRLRPPRLPRPRPRPSRGPRP	0.0578
RRIRLRPPRLPRPRPRPSSAPRP	-0.0182
RRIRLRPPRLPRPRPRPSTSPRP	-0.0196
RRIRLRPPRLPRPRPRPSTTPRP	-0.347
RRIRLRPPRLPRPRPRPSVAPRP	-0.0589
RRIRLRPPRLPRPRPRPSVHPRP	-0.61
RRIRLRPPRLPRPRPRPSWIPRP	-0.131

Sequence	shrunken log2 fold change
RRIRLRPPRLPRPRPRPSYLPRP	-0.659
RRIRLRPPRLPRPRPRPSYQPRP	-0.255
RRIRLRPPRLPRPRPRPTAMPRP	0.0595
RRIRLRPPRLPRPRPRPTCYPRP	-0.371
RRIRLRPPRLPRPRPRPTDCPRP	-0.197
RRIRLRPPRLPRPRPRPTEEPRP	-0.0651
RRIRLRPPRLPRPRPRPTHTPRP	-0.158
RRIRLRPPRLPRPRPRPTISPRP	-0.375
RRIRLRPPRLPRPRPRPTIWPRP	0.203
RRIRLRPPRLPRPRPRPTKWPRP	-0.0762
RRIRLRPPRLPRPRPRPTLMPRP	0.0897
RRIRLRPPRLPRPRPRPTPEPRP	0.181
RRIRLRPPRLPRPRPRPTPMPRP	0.143
RRIRLRPPRLPRPRPRPTPNPRP	0.403
RRIRLRPPRLPRPRPRPTQEPRP	0.0081
RRIRLRPPRLPRPRPRPTQMPRP	0.333
RRIRLRPPRLPRPRPRPTRGPRP	0.298
RRIRLRPPRLPRPRPRPTRNPRP	0.24
RRIRLRPPRLPRPRPRPTTLPRP	0.0342
RRIRLRPPRLPRPRPRPTWNPRP	-0.114
RRIRLRPPRLPRPRPRPVAIPRP	0.0902
RRIRLRPPRLPRPRPRPVCTPRP	-0.0517
RRIRLRPPRLPRPRPRPVCYPRP	-0.156
RRIRLRPPRLPRPRPRPVDNPRP	-0.491
RRIRLRPPRLPRPRPRPVEEPRP	0.21

Sequence	shrunken log2 fold change
RRIRLRPPRLPRPRPRPVEWPRP	-0.228
RRIRLRPPRLPRPRPRPVEYPRP	-0.294
RRIRLRPPRLPRPRPRPVGHPRP	0.306
RRIRLRPPRLPRPRPRPVHCPRP	-0.11
RRIRLRPPRLPRPRPRPVHMPRP	-0.0691
RRIRLRPPRLPRPRPRPVINPRP	-0.686
RRIRLRPPRLPRPRPRPVIRPRP	-0.502
RRIRLRPPRLPRPRPRPVKKPRP	0.031
RRIRLRPPRLPRPRPRPVKNPRP	-0.176
RRIRLRPPRLPRPRPRPVLPPRP	-0.0546
RRIRLRPPRLPRPRPRPVLRPRP	-0.113
RRIRLRPPRLPRPRPRPVLYPRP	-0.239
RRIRLRPPRLPRPRPRPVNWPRP	0.0772
RRIRLRPPRLPRPRPRPVPCPRP	-0.239
RRIRLRPPRLPRPRPRPVPIPRP	0.125
RRIRLRPPRLPRPRPRPVPQPRP	0.238
RRIRLRPPRLPRPRPRPVQFPRP	-0.38
RRIRLRPPRLPRPRPRPVQWPRP	0.288
RRIRLRPPRLPRPRPRPVRMPRP	0.494
RRIRLRPPRLPRPRPRPVTDPRP	-0.325
RRIRLRPPRLPRPRPRPVVVPRP	1.45
RRIRLRPPRLPRPRPRPVWMPRP	0.372
RRIRLRPPRLPRPRPRPVYFPRP	-0.455
RRIRLRPPRLPRPRPRPWAIPRP	-0.0706
RRIRLRPPRLPRPRPRPWDYPRP	0.0642

Sequence	shrunken log2 fold change
RRIRLRPPRLPRPRPRPWFAPRP	-0.112
RRIRLRPPRLPRPRPRPWFYPRP	-0.785
RRIRLRPPRLPRPRPRPWGAPRP	0.261
RRIRLRPPRLPRPRPRPWHCPRP	-0.0686
RRIRLRPPRLPRPRPRPWKQPRP	-0.0134
RRIRLRPPRLPRPRPRPWLAPRP	-0.218
RRIRLRPPRLPRPRPRPWLCPRP	-0.0198
RRIRLRPPRLPRPRPRPWLHPRP	-0.0284
RRIRLRPPRLPRPRPRPWLWPRP	-0.106
RRIRLRPPRLPRPRPRPWMLPRP	-0.0153
RRIRLRPPRLPRPRPRPWNAPRP	-0.249
RRIRLRPPRLPRPRPRPWPNPRP	-0.0032
RRIRLRPPRLPRPRPRPWPVPRP	0.191
RRIRLRPPRLPRPRPRPWQFPRP	-0.196
RRIRLRPPRLPRPRPRPWQKPRP	0.0576
RRIRLRPPRLPRPRPRPWRQPRP	-0.121
RRIRLRPPRLPRPRPRPWSEPRP	0.0878
RRIRLRPPRLPRPRPRPWTLPRP	0.00677
RRIRLRPPRLPRPRPRPWVFPRP	0.163
RRIRLRPPRLPRPRPRPWWGPRP	-0.063
RRIRLRPPRLPRPRPRPWYAPRP	-0.171
RRIRLRPPRLPRPRPRPWYLPRP	-0.759
RRIRLRPPRLPRPRPRPYAEPRP	-0.101
RRIRLRPPRLPRPRPRPYARPRP	-0.44
RRIRLRPPRLPRPRPRPYCTPRP	1.26

Sequence	shrunken log2 fold change
RRIRLRPPRLPRPRPRPYELPRP	0.00404
RRIRLRPPRLPRPRPRPYILPRP	-0.317
RRIRLRPPRLPRPRPRPYLYPRP	-0.164
RRIRLRPPRLPRPRPRPYMEPRP	0.039
RRIRLRPPRLPRPRPRPYNAPRP	-0.0942
RRIRLRPPRLPRPRPRPYNSPRP	-0.514
RRIRLRPPRLPRPRPRPYPLPRP	-0.413
RRIRLRPPRLPRPRPRPYPVPRP	-0.025
RRIRLRPPRLPRPRPRPYPWPRP	-0.141
RRIRLRPPRLPRPRPRPYRRPRP	0.0203
RRIRLRPPRLPRPRPRPYVCPRP	-0.0658
RRIRLRPPRLPRPRPRPYVFPRP	-0.515
RRIRLRPPRLPRPRPRPYVYPRP	-0.706
RRIRLRPPRLPRPRPRPYWHPRP	-0.61
RRIRLRPPRLPRPRPRPYWRPRP	0.231
RRIRLRPPRLPRPRPRPYYRPRP	-0.043
RRIRMRPPRLPRPRPRPADVPRP	0.0241
RRIRMRPPRLPRPRPRPAEDPRP	1.93
RRIRMRPPRLPRPRPRPAEEPRP	1.55
RRIRMRPPRLPRPRPRPAGLPRP	0.47
RRIRMRPPRLPRPRPRPAGSPRP	0.2
RRIRMRPPRLPRPRPRPALFPRP	0.356
RRIRMRPPRLPRPRPRPALHPRP	0.791
RRIRMRPPRLPRPRPRPAMGPRP	0.867
RRIRMRPPRLPRPRPRPAMQPRP	0.404

Sequence	shrunken log2 fold change
RRIRMRPPRLPRPRPRPAPLPRP	0.541
RRIRMRPPRLPRPRPRPAPMPRP	0.953
RRIRMRPPRLPRPRPRPAPRPRP	1.72
RRIRMRPPRLPRPRPRPAPSPRP	1.28
RRIRMRPPRLPRPRPRPAQQPRP	0.612
RRIRMRPPRLPRPRPRPASVPRP	1.67
RRIRMRPPRLPRPRPRPATGPRP	0.15
RRIRMRPPRLPRPRPRPAWPPRP	0.896
RRIRMRPPRLPRPRPRPAWSPRP	0.44
RRIRMRPPRLPRPRPRPAYGPRP	-0.00861
RRIRMRPPRLPRPRPRPCAQPRP	-0.0823
RRIRMRPPRLPRPRPRPCCIPRP	-0.351
RRIRMRPPRLPRPRPRPCDGPRP	0.0158
RRIRMRPPRLPRPRPRPCEMPRP	0.084
RRIRMRPPRLPRPRPRPCFMPRP	-0.136
RRIRMRPPRLPRPRPRPCFQPRP	-0.0397
RRIRMRPPRLPRPRPRPCGFPRP	0.0233
RRIRMRPPRLPRPRPRPCHPPRP	0.00663
RRIRMRPPRLPRPRPRPCHRPRP	0.00646
RRIRMRPPRLPRPRPRPCHYPRP	-0.112
RRIRMRPPRLPRPRPRPCIEPRP	-0.122
RRIRMRPPRLPRPRPRPCIHPRP	0.00462
RRIRMRPPRLPRPRPRPCKHPRP	0.0196
RRIRMRPPRLPRPRPRPCLLPRP	-0.0289
RRIRMRPPRLPRPRPRPCMCPRP	-0.317

From the supplement of paper PMC9112550, “Optimization of the antimicrobial peptide Bac7 by deep mutational scanning” (BMC Biology, 2022)
